Data taken from patent publication US20190077860A1 (EISAI R AND D MANAGEMENT, published 2019).

Legend:
[1] = biological target: T1, rat EphA4 extracellular region-Fc-His protein (rat; human, UniProt D3ZZK3 20-547); test: ELISA, EphA4 extracellular region-Fc-His (1 nM) captured on the plate, antibody A titrated, HRP anti-mouse IgG detection, OD 450 nm
T1 construct: range 20-547; used as culture supernatant
Protocol: (§1) Each well of a 96-well plate (Nunc) was coated with a […] (Jackson ImmunoResearch Laboratories). After incubation overnight at 4° C., each well was blocked with 1% BlockAce (Sumitomo Dainippon Pharma) at room temperature for 1 hour. After washing with 0.05% Tween 20/PBS (Nacalai Tesque) three times, the mouse, rat, monkey, or human EphA4 extracellular region-Fc-His protein was disseminated (final concentration: 1 nM) to each well and incubated at room temperature for 1 hour. After washing three times, a human IgG solution (100 μg/mL, Mitsubishi Pharma) and antibody A (0, 0.00128, 0.0064, 0.032, 0.16, 0.8, 4, and 20 μg/mL) were added to each well and incubated at room temperature for 1 hour. A horseradish peroxidase-labeled donkey anti-mouse IgG antibody (Jackson ImmunoResearch Laboratories) was added thereto and incubated at room temperature for 1 hour. After washing three times, a TMBZ (3,3′,5,5′-tetramethylbenzidine, Sigma-Aldrich) solution was added to each well. After confirmation of moderate color development, an equal amount of a reaction stopping solution (1N H₂SO₄, Wako Pure Chemical Industries) was added to each well. The absorbance at 450 nm was read using a microplate reader (PerkinElmer).

[2] = biological target: T2, monkey EphA4 extracellular region-Fc-His protein (monkey; human); test: as above
T2 construct: used as culture supernatant
T2 sequence (chain, as listed by the source): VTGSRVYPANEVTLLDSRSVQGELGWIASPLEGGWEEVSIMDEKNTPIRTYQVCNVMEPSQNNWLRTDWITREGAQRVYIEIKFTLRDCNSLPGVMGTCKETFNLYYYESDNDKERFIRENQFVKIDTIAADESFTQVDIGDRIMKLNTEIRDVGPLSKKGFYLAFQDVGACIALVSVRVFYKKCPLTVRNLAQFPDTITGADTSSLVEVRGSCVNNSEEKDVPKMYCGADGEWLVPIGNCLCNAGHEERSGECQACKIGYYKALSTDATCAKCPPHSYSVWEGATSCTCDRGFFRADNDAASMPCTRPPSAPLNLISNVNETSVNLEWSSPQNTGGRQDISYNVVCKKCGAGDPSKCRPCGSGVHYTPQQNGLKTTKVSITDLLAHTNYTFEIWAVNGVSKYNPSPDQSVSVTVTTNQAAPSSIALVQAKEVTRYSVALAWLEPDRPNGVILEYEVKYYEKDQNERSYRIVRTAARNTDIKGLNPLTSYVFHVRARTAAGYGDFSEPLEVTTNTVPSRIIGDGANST
Protocol: as §1

[3] = biological target: T3, human EphA4 extracellular region-Fc-His protein (human, UniProt P54764 20-547); test: as above
T3 construct: used as culture supernatant
T3 sequence (P54764 20-547): as the sequence (chain, as listed by the source) above, with S406N counted along it
Protocol: as §1

[4] = biological target: T4, mouse EphA4 extracellular region-Fc-His protein (mouse; human, UniProt Q03137 20-547); test: as above
T4 construct: used as culture supernatant
T4 sequence (Q03137 20-547): as the sequence (chain, as listed by the source) above, with P59A, N121S, V124G, R250Q, S251N, T270S, K378R counted along it
Protocol: as §1

[5] = biological target: mouse EphA4 extracellular region-SEAP-His protein (mouse); test: SPR (Biacore A100), antibody captured, EphA4-SEAP-His analyte
Chain of mouse EphA4 extracellular region-SEAP-His protein (mouse) (chain, as listed by the source limits assumed): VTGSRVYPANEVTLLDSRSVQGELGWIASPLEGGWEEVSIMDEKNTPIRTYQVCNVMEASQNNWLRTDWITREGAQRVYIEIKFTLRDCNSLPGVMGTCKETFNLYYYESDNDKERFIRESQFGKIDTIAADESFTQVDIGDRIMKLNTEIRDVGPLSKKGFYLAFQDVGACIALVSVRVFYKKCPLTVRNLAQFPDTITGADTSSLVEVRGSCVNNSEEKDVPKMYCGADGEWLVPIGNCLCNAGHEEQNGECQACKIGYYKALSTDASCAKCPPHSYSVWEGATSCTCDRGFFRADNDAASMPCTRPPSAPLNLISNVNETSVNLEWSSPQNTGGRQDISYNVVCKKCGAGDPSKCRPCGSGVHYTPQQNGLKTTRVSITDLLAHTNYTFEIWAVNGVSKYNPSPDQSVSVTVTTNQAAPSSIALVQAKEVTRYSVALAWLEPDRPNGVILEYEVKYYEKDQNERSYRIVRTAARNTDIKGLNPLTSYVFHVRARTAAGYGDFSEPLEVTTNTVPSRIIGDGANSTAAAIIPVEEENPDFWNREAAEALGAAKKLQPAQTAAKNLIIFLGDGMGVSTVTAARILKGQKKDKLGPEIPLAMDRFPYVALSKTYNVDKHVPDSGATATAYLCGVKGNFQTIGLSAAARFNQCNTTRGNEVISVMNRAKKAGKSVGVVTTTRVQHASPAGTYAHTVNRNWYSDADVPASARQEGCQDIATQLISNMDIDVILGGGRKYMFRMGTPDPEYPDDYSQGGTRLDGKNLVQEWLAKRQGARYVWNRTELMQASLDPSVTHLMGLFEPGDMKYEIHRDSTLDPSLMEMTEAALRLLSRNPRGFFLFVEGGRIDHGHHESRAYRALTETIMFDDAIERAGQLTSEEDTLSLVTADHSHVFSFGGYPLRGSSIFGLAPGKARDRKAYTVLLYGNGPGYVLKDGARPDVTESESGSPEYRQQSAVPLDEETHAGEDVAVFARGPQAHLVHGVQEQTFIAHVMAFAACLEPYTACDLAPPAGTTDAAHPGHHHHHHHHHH
Protocol: (§2) The binding affinity of antibody A obtained in Example 1 for mouse and human EphA4 was determined by surface plasmon resonance (SPR) using Biacore A100 (GE Healthcare). First, a rat anti-mouse IgG₁ antibody produced with a conventional procedure by immunizing rat with a mouse IgG₁ antibody was immobilized on sensor chip CM5. The immobilization of the rat anti-mouse IgG1 antibody on sensor chip CM5 was performed by the amine coupling method using N-hydroxysuccinimide (NHS) and N-ethyl-N′-(3-dimethylaminopropyl)carbodiimide hydrochloride (EDC). Ethanolamine was used in blocking (the sensor chip and the reagents for immobilization were all manufactured by GE Healthcare). The antibody was diluted with a buffer solution for immobilization (10 mM sodium acetate, pH 4.5) into 1 to 2 μg/mL and immobilized on the sensor chip according to the protocol attached to Biacore A100. Antibody A was diluted with a running buffer solution HBS-EP (GE Healthcare, BR-1001-88), injected onto a flow cell for 120 seconds, and captured (amount of the antibody captured: approximately 70 to 100 RU). Subsequently, mouse or human EphA4 extracellular region-SEAP-His serially diluted in the range of 50, 25, 12.5, 6.3, 3.1, 1.6, 0.8, and 0 nM using HBS-EP was added to the sensor chip for 120 seconds. […]

[6] = biological target: T5, human EphA4 extracellular region-SEAP-His protein (human, UniProt P54764 20-547); test: as above
T5 construct: also called hEphA4-SEAP-His
T5 sequence (P54764 20-547): as the sequence (chain, as listed by the source) above, with S406N counted along it
Protocol: as §2

[7] = biological target: rat EphA4 in rat hippocampal neurons (rat, UniProt D3ZZK3 20-986); test: cell-based or functional assay

B1: antibody A (antibody, mouse IgG1, kappa, V domains shown)
VH: QIQLVQSGPELKKPGETVKISCKASGYTFTDYSMHWVKQAPGKGLKWMGWINTETGEPTYADDFKGRFAFSLETSASTAYLQINNLKNEDTATYFCARIPLYYYGSRYWYFDVWGAGTTVTVSS
VL: DIQMTQSPASLSVSVGETVTITCRASENIYRNLAWYQQKQGKSPQLLVYAATNLADGVPSRFSGSGSGTQYSLKINSLQSEDFGSYYCQHFWGTPWTFGGGTKLEIKR
notes: mouse IgG1 heavy chain, kappa light chain; purified from hybridoma supernatant; also called anti-EphA4 monoclonal antibody; antibody A-IgG
- EC50 (read off the curve) [1]: ~0.1 nM
- EC50 (read off the curve) [2]: ~0.1 nM
- EC50 (read off the curve) [3]: ~0.1 nM
- EC50 (read off the curve) [4]: ~0.1 nM
- Kd [5]: 0.729 nM
- Kd [6]: 0.661 nM
- IC50 of suppression of EphA4 autophosphorylation induced by mouse EphrinA1 in the hippocampal neurons [7]: 24.2 nM
